The chains are these.
B1: RNA polymerase sigma factor RpoH (Escherichia coli (strain K12)), P0AGB3 (parent)
chain: MTDKMQSLALAPVGNLDSYIRAANAWPMLSADEERALAEKLHYHGDLEAAKTLILSHLRFVVHIARNYAGYGLPQADLIQEGNIGLMKAVRRFNPEVGVRLVSFAVHWIKAEIHEYVLRNWRIVKVATTKAQRKLFFNLRKTKQRLGWFNQDEVEMVARELGVTSKDVREMESRMAAQDMTFDLSSDDDSDSQPMAPVLYLQDKSSNFADGIEDDNWEEQAANRLTDAMQGLDERSQDIIRARWLDEDNKSTLQELADRYGVSAERVRQLEKNAMKKLRAAIEA
partner: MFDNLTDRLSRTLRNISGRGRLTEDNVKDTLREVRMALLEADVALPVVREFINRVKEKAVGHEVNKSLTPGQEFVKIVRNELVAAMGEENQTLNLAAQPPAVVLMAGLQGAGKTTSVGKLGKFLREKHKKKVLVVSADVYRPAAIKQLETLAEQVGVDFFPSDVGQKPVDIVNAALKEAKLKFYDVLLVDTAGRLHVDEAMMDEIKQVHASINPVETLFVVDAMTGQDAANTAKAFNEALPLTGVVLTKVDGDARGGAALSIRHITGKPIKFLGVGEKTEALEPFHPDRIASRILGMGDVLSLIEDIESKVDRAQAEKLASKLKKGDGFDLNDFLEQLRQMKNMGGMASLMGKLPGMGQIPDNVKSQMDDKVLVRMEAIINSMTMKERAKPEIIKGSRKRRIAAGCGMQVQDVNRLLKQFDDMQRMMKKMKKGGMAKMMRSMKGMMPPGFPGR

Variants of B1 are the subject of this assay. Particulars: with srp54_ecoli ffh.
Turning to MTDKMQSLALAPVGNLDSYIRAANAWPMLSADEERALAEKLHYHGDLEAAKTLNLSHLRFVVHIARNYAGYGLPQADLIQEGNIGLMKAVRRFNPEVGVRLVSFAVHWIKAEIHEYVLRNWRIVKVATTKAQRKLFFNLRKTKQRLGWFNQDEVEMVARELGVTSKDVREMESRMAAQDMTFDLSSDDDSDSQPMAPVLYLQDKSSNFADGIEDDNWEEQAANRLTDAMQGLDERSQDIIRARWLDEDNKSTLQELADRYGVSAERVRQLEKNAMKKLRAAIEA [I54N], the “effect of a mutation on the interaction” value is given as “decreasing interaction strength”.

The values are drawn from IntAct's records for PubMed 24358019.
